Source: article PMC12884264

Experiments:
[1] = biological target: computationally designed GFP(+16)BE (positive charges mainly at both ends of the barrel) [GFP: P42212]; assay: SEC
[2] = biological target: supercharged green fluorescent protein GFP(+28) [GFP: P42212]; assay: SEC
[3] = biological target: supercharged green fluorescent protein GFP(+36) [GFP: P42212]; assay: SEC
[4] = biological target: Archaeoglobus fulgidus ferritin, wildtype (Archaeoglobus fulgidus) (UniProt O29424); assay: time-resolved fluorescence anisotropy
[5] = biological target: Archaeoglobus fulgidus ferritin, wildtype (Archaeoglobus fulgidus) (UniProt O29424); assay: SEC + other: UV/Vis absorbance

Kd [1] | Kd [2] | Kd [3] | stoichiometry N (GFP per 24 mer) [3] | stoichiometry N (AfFtn2 per GFP(+36)) [4] | stoichiometry N (GFP(+36) per cage) [4] | stoichiometry N (GFP per ferritin cage) [5] | stoichiometry N (GFP(+36) per 24 mer ferritin) [5] | stoichiometry N (GFP(+36) per AfFtn24) [5] | stoichiometry N (GFP(+36) per ferritin 24 mer) [5] | Substance
51.5 µM | 36.7 µM | 22.7 µM | 3 |  |  |  |  |  |  | Archaeoglobus fulgidus ferritin, wildtype (from UniProt O29424 1-173) (natural protein)
 |  |  |  | 12 | 1 | 2 to 3 | 0.7 | 1.2 | 4 to 5 | supercharged green fluorescent protein GFP(+36) (from UniProt P42212 1-238)
